These are literature values, as cited in paper PMC4388261.

The target in the data set is Glu35 (UniProt position 53, CAAKFESNFNT). The following applies: not stated (wild-type HEWL; the literature range pools several studies).

Turning to “Hen egg-white lysozyme (HEWL, lysozyme C) (Gallus gallus)”, the pKa is 6.0–6.8.
